According to FireProtDB (doi:10.1093/protein/14.11.891):

B1: Sialidase, P29768 (parent)
chain: MTVEKSVVFKAEGEHFTDQKGNTIVGSGSGGTTKYFRIPAMCTTSKGTIVVFADARHNTASDQSFIDTAAARSTDGGKTWNKKIAIYNDRVNSKLSRVMDPTCIVANIQGRETILVMVGKWNNNDKTWGAYRDKAPDTDWDLVLYKSTDDGVTFSKVETNIHDIVTKNGTISAMLGGVGSGLQLNDGKLVFPVQMVRTKNITTVLNTSFIYSTDGITWSLPSGYCEGFGSENNIIEFNASLVNNIRNSGLRRSFETKDFGKTWTEFPPMDKKVDNRNHGVQGSTITIPSGNKLVAAHSSAQNKNNDYTRSDISLYAHNLYSGEVKLIDDFYPKVGNASGAGYSCLSYRKNVDKETLYVVYEANGSIEFQDLSRHLPVIKSYN

Variants of: B1
Details: Salmonella typhimurium (strain LT2 / SGSC1412 / ATCC 700720), pH 7, CD, Potassium phosphate 10 mM, reversible: yes, structure 1DIL, whole UniProt chain shown; for ddG of mutation (higher = less stable) / denaturant midpoint (higher = more stable) / unfolding free energy: 25 °C, GdnHCl; for Tm / change of melting temperature, mutant - wild type (higher = more stable): Thermal

Variant | ddG of mutation (higher = less stable) [kcal/mol] | denaturant midpoint (higher = more stable) [M] | unfolding free energy [kcal/mol] | Tm [°C] | change of melting temperature, mutant - wild type (higher = more stable) [°C]
A69V | -0.62 | 1.42 | 4.86 | 60 | 3
A53L | -0.81 | 1.64 | 5.05 | 62 | 5
